Results as given in publication PMC2704562 (Biochimica et biophysica acta, 2009).
Substitutions are numbered along the chain they refer to. Numbers in names are those of the source.

B1: Methanococcus jannaschii methionine adenosyltransferase, wild type (enzyme, UniProt Q58605 1-406, looked up)
chain: MRNIIVKKLDVEPIEERPTEIVERKGLGHPDSICDGIAESVSRALCKMYMEKFGTILHHNTDQVELVGGHAYPKFGGGVMVSPIYILLSGRATMEILDKEKNEVIKLPVGTTAVKAAKEYLKKVLRNVDVDKDVIIDCRIGQGSMDLVDVFERQKNEVPLANDTSFGVGYAPLSTTERLVLETERFLNSDELKNEIPAVGEDIKVMGLREGKKITLTIAMAVVDRYVKNIEEYKEVIEKVRKKVEDLAKKIADGYEVEIHINTADDYERESVYLTVTGTSAEMGDDGSVGRGNRVNGLITPFRPMSMEAASGKNPVNHVGKIYNILANLIANDIAKLEGVKECYVRILSQIGKPINEPKALDIEIITEDSYDIKDIEPKAKEIANKWLDNIMEVQKMIVEGKVTTF
B2: Mj-MAT W387F-Y72W (enzyme, Methanococcus jannaschii, UniProt Q58605 1-406, looked up)
chain: B1 chain with Y72W, W387F
B3: Mj-MAT W387F (enzyme, Methanococcus jannaschii, UniProt Q58605 1-406, looked up)
chain: B1 chain with W387F
B4: Mj-MAT W387F-Y170W (enzyme, Methanococcus jannaschii, UniProt Q58605 1-406, looked up)
chain: B1 chain with Y170W, W387F
B5: Mj-MAT W387F-Y371W (enzyme, Methanococcus jannaschii, UniProt Q58605 1-406, looked up)
chain: B1 chain with Y371W, W387F
B6: Mj-MAT W387F-Y267W (enzyme, Methanococcus jannaschii, UniProt Q58605 1-406, looked up)
chain: B1 chain with Y267W, W387F
B7: Mj-MAT W387F-Y226W (enzyme, Methanococcus jannaschii, UniProt Q58605 1-406, looked up)
chain: B1 chain with Y226W, W387F
B8: Mj-MAT W387F-Y85W (enzyme, Methanococcus jannaschii, UniProt Q58605 1-406, looked up)
chain: B1 chain with Y85W, W387F
B9: Mj-MAT W387F-Y233W (enzyme, Methanococcus jannaschii, UniProt Q58605 1-406, looked up)
chain: B1 chain with Y233W, W387F
B10: Mj-MAT W387F-Y120W (enzyme, Methanococcus jannaschii, UniProt Q58605 1-406, looked up)
chain: B1 chain with Y120W, W387F
B11: Mj-MAT W387F-Y323W (enzyme, Methanococcus jannaschii, UniProt Q58605 1-406, looked up)
chain: B1 chain with Y323W, W387F
B12: Mj-MAT W387F-Y49W (enzyme, Methanococcus jannaschii, UniProt Q58605 1-406, looked up)
chain: B1 chain with Y49W, W387F
B13: Mj-MAT W387F-Y344W (enzyme, Methanococcus jannaschii, UniProt Q58605 1-406, looked up)
chain: B1 chain with Y344W, W387F
B14: Mj-MAT W387F-Y273W (enzyme, Methanococcus jannaschii, UniProt Q58605 1-406, looked up)
chain: B1 chain with Y273W, W387F
B15: Mj-MAT W387F-Y255W (enzyme, Methanococcus jannaschii, UniProt Q58605 1-406, looked up)
chain: B1 chain with Y255W, W387F

What follows are proteins tested on Nc1ncnc2c1ncn2[C@@H]1O[C@H](COP(=O)(O)OP(=O)(O)OP(=O)(O)O)[C@@H](O)[C@H]1O (assay: radiometric S-adenosylmethionine formation assay, Michaelis-Menten fit). Settings: 0.5 mM [methyl-14C]-L-methionine, ATP 0.05-2.5 mM, 55 °C.
Format: biochemical, Methanocaldococcus jannaschii
With B1 the Km was 190 ± 30 µM and the kcat was 1.46 ± 0.05 s⁻¹.
With B2 the Km was 110 ± 30 µM and the kcat was 1.62 ± 0.15 s⁻¹.
Protein B3 has a Km of 110 ± 30 µM and a kcat of 1.85 ± 0.08 s⁻¹.
B4 showed a Km of 100 ± 20 µM and a kcat of 2.39 ± 0.03 s⁻¹.

Biological target: the molecule itself
Assay: AUC
Settings: not given
In the case of B2, the “stoichiometry N” value is reported as 2.
With B5 the “stoichiometry N” value was 2.
With B3 the “stoichiometry N” value was 2.
B6 was tested, and the “stoichiometry N” value was 2.
In the case of B7, the “stoichiometry N” value is reported as 2.
For B8, the “stoichiometry N” value was 2.
In the case of B9, the “stoichiometry N” value is reported as 2.
For B10, the “stoichiometry N” value was 2.
B11 was tested, and the “stoichiometry N” value was 2.
B12 was tested, and the “stoichiometry N” value was 2.
With B13 the “stoichiometry N” value was 2.
For B14, the “stoichiometry N” value was 2.
B4 was tested, and the “stoichiometry N” value was 2.
In the case of B15, the “stoichiometry N” value is reported as 2.

Biological target: the molecule itself
Assay: SEC
Settings: not given
With B1 the “stoichiometry N” value was 2.
